# In patent US20170137512A1:
# Read-outs that look alike come from different tables or passages of the source.
# T1: cyno Kv1.3 (Macaca fascicularis)
# T1 chain: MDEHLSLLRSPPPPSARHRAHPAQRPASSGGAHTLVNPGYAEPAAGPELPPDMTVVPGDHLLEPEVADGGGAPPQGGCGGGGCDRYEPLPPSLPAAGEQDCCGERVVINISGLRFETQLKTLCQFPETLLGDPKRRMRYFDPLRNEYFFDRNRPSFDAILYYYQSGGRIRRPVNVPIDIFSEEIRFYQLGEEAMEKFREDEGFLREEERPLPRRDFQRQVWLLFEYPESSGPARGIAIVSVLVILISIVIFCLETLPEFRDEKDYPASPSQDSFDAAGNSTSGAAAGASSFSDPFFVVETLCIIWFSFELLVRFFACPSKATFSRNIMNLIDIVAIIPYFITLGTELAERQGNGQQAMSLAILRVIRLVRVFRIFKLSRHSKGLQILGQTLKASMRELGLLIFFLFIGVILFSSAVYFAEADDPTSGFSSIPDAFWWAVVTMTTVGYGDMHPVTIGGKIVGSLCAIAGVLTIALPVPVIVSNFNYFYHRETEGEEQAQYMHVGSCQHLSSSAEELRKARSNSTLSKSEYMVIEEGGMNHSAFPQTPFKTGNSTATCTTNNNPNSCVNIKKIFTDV
# What was measured:
# [1] = biological target: human Kv1.3 (Homo sapiens), P22001; experiment: cell-based or functional assay
# [2] = biological target: T1, cyno Kv1.3 (Macaca fascicularis)
# [3] = biological target: T1, cyno Kv1.3 (Macaca fascicularis); experiment: titration of radiolabeled margatoxin on CHO-cyKv1.3 cells
# [4] = biological target: human Kv1.3 (Homo sapiens), P22001
# [5] = biological target: human Kv1.3 (Homo sapiens), P22001; experiment: cell-based or functional assay; remark: listed apart in the source
# [6] = biological target: human Kv1.3 (Homo sapiens), P22001; remark: listed apart in the source
# [7] = biological target: human Kv1.3 (Homo sapiens) (UniProt P22001); experiment: cell-based or functional assay
binder,measurement,setting,value
"TIINVKCTSPKQCLPPCKAQFGQSAGAKCMNGKCKCYPH (modifications not checked) [unlabeled margatoxin (Alamone labs, Cat RTM-325), P40755 1-39]","IC50, IFNγ read out, CCR7-CD45RA- T cells stimulated with anti-CD3",[1],94 pM
same,IC50,[2],0.24 nM
"TIINVKCTSPKQCLPPCKAQFGQSAGAKCMNGKCKCYPH (modifications not checked) [125I-margatoxin (Perkin Elmer, NEX083), P40755 1-39]",EC30,[3],150 pM
"RSCIDTIPKSRCTAFQCKHSMKYRLSFCRKTCGTC (modifications not checked) [ShK-1aJ (Smartox, #08SHK001), P29187 1-35]","Average IC50, Kv1.3 current, IonFlux automated patch clamp, HEK293H cells",[1],76 pM
same,"Average IC50, Kv1.3 current, IonWorks perforated patch clamp, CHL cells",[1],400 pM
same,"IC50, CD25 read out, CCR7-CD45RA- T cells stimulated with anti-CD3",[1],270 pM
same,"IC50, CD25 read out, T cell activation assay",[1],730 pM
same,"IC50, CD25 read out, T cell activation assay, with 10 µM HSA",[1],38 pM
same,"IC50, IFNγ production, T-cell activation assay",[1],41 pM
same,"IC50, IFNγ read out, CCR7-CD45RA- T cells stimulated with anti-CD3",[1],76 pM
same,"IC50, IFNγ read out, T cell activation assay",[1],140 pM
same,"IC50, IFNγ read out, T cell activation assay, with 10 µM HSA",[1],27 pM
same,% inhibition,[4],102%
same,"IC50, CD25 read out, CCR7-CD45RA- T cells stimulated with anti-CD3",[5],220 pM
same,"IC50, IFNγ read out, CCR7-CD45RA- T cells stimulated with anti-CD3",[5],65 pM
same,IC50,[2],0.24 nM
same,IC50 (read off the curve),[6],10 nM
"A0194016B04 (VHH, not shown: small tags and cut ends) VHH: EVQLVESGGGLVQAGGSLRLSCSASGLLFSVNSAGWYRQAPGKQRDFVARIRSGGSTNYADSVKGRFTISRDKATNTLYLQMNNLKPEDTAVYYCSSWRTEAYEYWGRGTLVTVSS","Average IC50, Kv1.3 current, IonFlux automated patch clamp, HEK293H cells",[7],84 nM
same,"Average IC50, Kv1.3 current, IonWorks perforated patch clamp, CHL cells",[7],34 nM
"A0194020A06 (VHH, not shown: small tags and cut ends) VHH: EVQLVESGGGLVQAGGSLGLSCSASGLLFSRNSAGWYRQAPGKRREFVARIRMGGSINYADSVKGRFTVSRDNAKNMMYLQMNDLKPEDTAVYFCSGWREGFYEYWGQGTLVTVSS","Average IC50, Kv1.3 current, IonFlux automated patch clamp, HEK293H cells",[7],13.4 nM
same,"IC50, CD25 read out, CCR7-CD45RA- T cells stimulated with anti-CD3",[7],36 nM
same,"IC50, IFNγ read out, CCR7-CD45RA- T cells stimulated with anti-CD3",[7],30 nM
